Data: patent US20260014245A1 (MAX DELBRUECK CENTRUM F R MOLEKULARE MEDIZIN IN DER …, published 2026)

How the values were obtained:
[1] = target: T1, MERS-CoV RBD (wild type, amino acids G372-L588, AviTag, Twin Strep tag, 6xHis) (MERS-CoV); assay: human DPP4
[2] = target: T1, MERS-CoV RBD (wild type, amino acids …); assay: serum pull-down with RBD coated beads
[3] = target: T1, MERS-CoV RBD (wild type, amino acids …); assay: ELISA on coated RBD, antibody titrated, anti human IgG OD 405 nm
[4] = target: T1, MERS-CoV RBD (wild type, amino acids …); assay: ELISA, anti Twin-Strep readout OD 405 nm (the Twin-Strep-tagged RBD is detected)

B1: recombinant human DPP4 with an N-terminal 8xHis-tag (hDPP4-N'His) (receptor)
chain: HHHHHHHHGGGSGGGSGGGSDSRKTYTLTDYLKNTYRLKLYSLRWISDHEYLYKQENNILVFNAEYGNSSVFLENSTFDEFGHSINDYSISPDGQFILLEYNYVKQWRHSYTASYDIYDLNKRQLITEERIPNNTQWVTWSPVGHKLAYVWNNDIYVKIEPNLPSYRITWTGKEDIIYNGITDWVYEEEVFSAYSALWWSPNGTFLAYAQFNDTEVPLIEYSFYSDESLQYPKTVRVPYPKAGAVNPTVKFFVVNTDSLSSVTNATSIQITAPASMLIGDHYLCDVTWATQERISLQWLRRIQNYSVMDICDYDESSGRWNCLVARQHIEMSTTGWVGRFRPSEPHFTLDGNSFYKIISNEEGYRHICYFQIDKKDCTFITKGTWEVIGIEALTSDYLYYISNEYKGMPGGRNLYKIQLSDYTKVTCLSCELNPERCQYYSVSFSKEAKYYQLRCSGPGLPLYTLHSSVNDKGLRVLEDNSALDKMLQNVQMPSKKLDFIILNETKFWYQMILPPHFDKSKKYPLLLDVYAGPCSQKADTVFRLNWATYLASTENIIVASFDGRGSGYQGDKIMHAINRRLGTFEVEDQIEAARQFSKMGFVDNKRIAIWGWSYGGYVTSMVLGSGSGVFKCGIAVAPVSRWEYYDSVYTERYMGLPTPEDNLDHYRNSTVMSRAENFKQVEYLLIHGTADDNVHFQQSAQISKALVDVGVDFQAMWYTDEDHGIASSTAHQHIYTHMSHFIKQCFSLP
notes: range 38-766
Binder B1 has a Kd [1] of 7.8 nM.

B2: circulating mouse DPP4 (from serum) (receptor)
chain: SRRTYSLADYLKSTFRVKSYSLWWVSDFEYLYKQENNILLLNAEHGNSSIFLENSTFESFGYHSVSPDRLFVLLEYNYVKQWRHSYTASYNIYDVNKRQLITEEKIPNNTQWITWSPEGHKLAYVWKNDIYVKVEPHLPSHRITSTGEENVIYNGITDWVYEEEVFGAYSALWWSPNNTFLAYAQFNDTGVPLIEYSFYSDESLQYPKTVWIPYPKAGAVNPTVKFFIVNIDSLSSSSSAAPIQIPAPASVARGDHYLCDVVWATEERISLQWLRRIQNYSVMAICDYDKINLTWNCPSEQQHVEMSTTGWVGRFRPAEPHFTSDGSSFYKIISDKDGYKHICHFPKDKKDCTFITKGAWEVISIEALTSDYLYYISNQYKEMPGGRNLYKIQLTDHTNVKCLSCDLNPERCQYYAVSFSKEAKYYQLGCWGPGLPLYTLHRSTDHKELRVLEDNSALDRMLQDVQMPSKKLDFIVLNETRFWYQMILPPHFDKSKKYPLLLDVYAGPCSQKADASFRLNWATYLASTENIIVASFDGRGSGYQGDKIMHAINRRLGTLEVEDQIEAARQFVKMGFVDSKRVAIWGWSYGGYVTSMVLGSGSGVFKCGIAVAPVSRWEYYDSVYTERYMGLPIPEDNLDHYRNSTVMSRAEHFKQVEYLLIHGTADDNVHFQQSAQISKALVDAGVDFQAMWYTDEDHGIASSTAHQHIYSHMSHFLQQCFSLH
B2: no binding [2].

B3: D12 (antibody, V domains shown)
VH: EVKLVESGGGLVKPGGSLKLSCAASGFTFSSYAMSWVRQTPEKRLEWVATISSGGTYTYYPDSVKGRFTISRDNAENTLYLQMSSLRSEDTAMYYCVRDGNSMDYWGQGTSVTVSS
VL: DIQMTQTTSSLSASLGDRVTIICRASQDINNYLNWYQKPDGTVKLLIYYTSRLHSGVPSRFSGSGSGSDYSLTISNLEQEDIATYFCQQANTLPPTFGAGTKLELR
In the case of B3, the “EC50 (read off the curve)” value [3] is reported as roughly 0.04 ng/µL.

B4: LCA60 (antibody, V domains shown)
VH: EVQLLESGGGLVKPGGSLRLSCEASGLTFSNVWMSWVRQAPGKGLEWVGRIKRKSEGATTDYGAPVKGRFTLSRDDSKNTVYLQMNSLKIDDTAVYYCSTLTRGGDVWSSSYYFDYWGQGALVTVSS
VL: QSALTQPASVSGSPGQSITISCTGTSSDVGTYDLVSWYQQHPGKSPKLMIYADIKRPSGVSHRFSGSKSGNTASLTISGLQSADEADYYCCLYAGSSTSVIFGGGTKVT
In the case of B4, the “EC50 (read off the curve)” value [3] is reported as roughly 0.03 ng/µL.

B5: recombinant mouse DPP4 (mDPP4) (receptor)
chain: SKDEAAADSRRTYSLADYLKSTFRVKSYSLWWVSDFEYLYKQENNILLLNAEHGNSSIFLENSTFESFGYHSVSPDRLFVLLEYNYVKQWRHSYTASYNIYDVNKRQLITEEKIPNNTQWITWSPEGHKLAYVWKNDIYVKVEPHLPSHRITSTGEENVIYNGITDWVYEEEVFGAYSALWWSPNNTFLAYAQFNDTGVPLIEYSFYSDESLQYPKTVWIPYPKAGAVNPTVKFFIVNIDSLSSSSSAAPIQIPAPASVARGDHYLCDVVWATEERISLQWLRRIQNYSVMAICDYDKINLTWNCPSEQQHVEMSTTGWVGRFRPAEPHFTSDGSSFYKIISDKDGYKHICHFPKDKKDCTFITKGAWEVISIEALTSDYLYYISNQYKEMPGGRNLYKIQLTDHTNVKCLSCDLNPERCQYYAVSFSKEAKYYQLGCWGPGLPLYTLHRSTDHKELRVLEDNSALDRMLQDVQMPSKKLDFIVLNETRFWYQMILPPHFDKSKKYPLLLDVYAGPCSQKADASFRLNWATYLASTENIIVASFDGRGSGYQGDKIMHAINRRLGTLEVEDQIEAARQFVKMGFVDSKRVAIWGWSYGGYVTSMVLGSGSGVFKCGIAVAPVSRWEYYDSVYTERYMGLPIPEDNLDHYRNSTVMSRAEHFKQVEYLLIHGTADDNVHFQQSAQISKALVDAGVDFQAMWYTDEDHGIASSTAHQHIYSHMSHFLQQCFSLH
B5: no binding (tested: about 30 ng/µL) [4].
